According to patent US20080096792A1 (SEOUL NATIONAL UNIVERSITY INDUSTRY FOUNDATION, published 2008):

Legend:
[1] = target: integrin α3β1 on HOK-16B cells (human (HOK-16B human oral keratinocytes)) (UniProt P26006); assay: cell-based or functional assay
[2] = target: integrin α3β1 on HOK-16B cells (human (HOK-16B human oral keratinocytes), UniProt P26006 33-1051; P05556 21-798); assay: cell-based or functional assay
integrin α3β1 on HOK-16B cells, sequence (P26006 33-1051, chain 1 of 2): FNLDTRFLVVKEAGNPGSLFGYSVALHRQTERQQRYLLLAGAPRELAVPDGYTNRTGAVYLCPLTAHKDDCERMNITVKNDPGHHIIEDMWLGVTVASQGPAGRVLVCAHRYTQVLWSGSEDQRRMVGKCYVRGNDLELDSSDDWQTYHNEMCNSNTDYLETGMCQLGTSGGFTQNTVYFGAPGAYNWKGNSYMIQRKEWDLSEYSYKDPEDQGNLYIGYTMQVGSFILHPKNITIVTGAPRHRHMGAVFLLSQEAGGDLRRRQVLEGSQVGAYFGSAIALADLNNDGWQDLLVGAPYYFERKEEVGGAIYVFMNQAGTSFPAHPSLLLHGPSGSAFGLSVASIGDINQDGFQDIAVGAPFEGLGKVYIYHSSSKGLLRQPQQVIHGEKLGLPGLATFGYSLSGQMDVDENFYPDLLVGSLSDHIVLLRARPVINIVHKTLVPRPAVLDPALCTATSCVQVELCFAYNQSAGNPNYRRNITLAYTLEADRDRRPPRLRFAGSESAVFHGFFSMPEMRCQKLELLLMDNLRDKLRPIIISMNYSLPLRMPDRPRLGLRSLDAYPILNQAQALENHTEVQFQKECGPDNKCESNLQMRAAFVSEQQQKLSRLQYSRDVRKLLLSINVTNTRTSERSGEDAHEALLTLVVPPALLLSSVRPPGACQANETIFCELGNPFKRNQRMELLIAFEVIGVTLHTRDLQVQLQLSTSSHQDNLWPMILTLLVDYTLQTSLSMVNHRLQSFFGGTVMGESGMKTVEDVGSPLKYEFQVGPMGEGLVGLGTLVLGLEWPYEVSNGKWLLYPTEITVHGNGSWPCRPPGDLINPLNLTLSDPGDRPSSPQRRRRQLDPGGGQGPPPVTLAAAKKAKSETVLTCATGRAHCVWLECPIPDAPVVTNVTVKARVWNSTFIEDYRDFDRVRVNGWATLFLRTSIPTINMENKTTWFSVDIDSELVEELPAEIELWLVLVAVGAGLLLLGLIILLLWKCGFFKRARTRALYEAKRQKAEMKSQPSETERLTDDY
integrin α3β1 on HOK-16B cells, sequence (P05556 21-798, chain 2 of 2): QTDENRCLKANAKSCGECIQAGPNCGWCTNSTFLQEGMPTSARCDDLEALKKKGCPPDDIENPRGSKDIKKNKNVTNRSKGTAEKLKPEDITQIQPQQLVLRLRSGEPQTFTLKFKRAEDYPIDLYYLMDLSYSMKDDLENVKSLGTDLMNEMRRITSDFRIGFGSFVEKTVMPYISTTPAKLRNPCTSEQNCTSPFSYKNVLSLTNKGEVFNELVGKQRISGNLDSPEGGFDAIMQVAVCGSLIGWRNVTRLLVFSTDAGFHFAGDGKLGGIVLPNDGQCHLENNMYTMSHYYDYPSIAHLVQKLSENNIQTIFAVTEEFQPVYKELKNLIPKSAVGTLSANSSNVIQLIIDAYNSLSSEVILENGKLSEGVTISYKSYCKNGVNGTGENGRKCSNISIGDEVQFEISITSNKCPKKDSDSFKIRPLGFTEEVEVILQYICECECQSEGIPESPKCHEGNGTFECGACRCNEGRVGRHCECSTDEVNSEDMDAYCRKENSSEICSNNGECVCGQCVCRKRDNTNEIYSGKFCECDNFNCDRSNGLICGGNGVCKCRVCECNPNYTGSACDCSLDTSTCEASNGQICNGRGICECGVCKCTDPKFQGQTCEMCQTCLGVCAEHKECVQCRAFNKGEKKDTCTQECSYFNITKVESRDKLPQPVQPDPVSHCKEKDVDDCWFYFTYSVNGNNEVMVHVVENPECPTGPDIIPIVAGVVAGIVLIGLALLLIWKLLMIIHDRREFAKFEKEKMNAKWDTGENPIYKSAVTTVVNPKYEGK

integrin α3β1 on HOK-16B cells (human (HOK-16B human oral keratinocytes)), sequence (P26006 33-1051, chain 1 of 2): as the sequence (P26006 33-1051, chain 1 of 2) above
integrin α3β1 on HOK-16B cells (human (HOK-16B human oral keratinocytes)), sequence (P05556 21-798, chain 2 of 2, further chain): as the sequence (P05556 21-798, chain 2 of 2) above

Molecule	FAK phosphorylation at Tyr-397 in HOK-16B cells, fold induction compared with the untreated control [1] [fold]	FAK phosphorylation at Tyr-397 in HOK-16B cells, fold induction compared with the untreated control [2] [fold]
human placental laminin (LN) (ligand)	16.2	–
recombinant LG3 protein of the human laminin-5 α3 chain (rLG3-His6) (ligand) MRGSHHHHHHGMASMTGGQQMGRDLTDDDDKDPSSRSAAGTMEFDFVRLNDTVGVTKKCSEDWKLVRSASFSRGGQLSFTDLGLPPTDHLQASFGFQTFQPSGILLDHQTWTRNLQVTLEDGYIELSTSDSGGPIFKSPQTYMDGLLHYVSVISDNSGLRLLIDDQLLRNSKRLKHISSSRQSLRLGGSNFEGCISNVFVQRLSLSPEVLDLTSNSLKRDVSLGGCSLNKPPFLMLLKGSTRFNKTKTFRINQLLQDTPVASPRSVKVWQDACSPLPKTQANHESLVNSLLDPAANKARKVAELAAATAEQ	–	8.2
